Results as given in US20100311648A1 (AstraZeneca / MedImmune, published 2010).
Where two headings read alike, the source gives them in different places. Positions of bridges follow the written chain, without caps; N, C: chain ends. Non-standard residues stand in square brackets, D forms with d. dPhe(2-CF3) = N[C@H](Cc1ccccc1C(F)(F)F)C(=O)O; dPhe(4-CN) = N#Cc1ccc(C[C@@H](N)C(=O)O)cc1; Orn = NCCC[C@H](N)C(=O)O; Dab = NCC[C@H](N)C(=O)O

B1: Ac-Arg-cyclo(Glu-Dab-D-Phe-Arg-Trp-Orn)-NH2 (peptide)
peptide: Ac-RE[Dab][dF]RW[Orn]-NH2
modifications: lactam 2-7
B2: Ac-Arg-cyclo(Glu-Gln-D-Phe(4-CN)-Arg-Trp-Orn)-OH (peptide)
peptide: Ac-REQ[dPhe(4-CN)]RW[Orn]-OH
modifications: lactam 2-7
notes: also called No. 86
B3: Ac-Arg-cyclo(Glu-Gln-D-Phe(2-CF3)-Arg-Trp-Orn)-NH2 (peptide)
peptide: Ac-REQ[dPhe(2-CF3)]RW[Orn]-NH2
modifications: lactam 2-7
notes: also called No. 114
B4: Ac-D-Arg-cyclo(Asp-Gln-D-Phe(3-Cl)-Arg-Trp-Lys)-NH2 (peptide)
peptide: XDQXRWK
modifications: N-terminal Ac; D-Arg 1; D-Phe(3-Cl) 4; lactam Asp 2-Lys 7; C-terminal NH2
notes: also called No. 80

What was measured:
[1] = biological target: T1, human melanocortin-4 receptor (human, UniProt P32245 1-332); test: Ki of Table 1; receptor not given, taken as hMC4-R
T1 construct: whole, on cells; functional assay: HEK293-T-REx-MC4-R cells induced with 0.1 or 10 ng/mL doxycycline; also called hMC4-R; MC4-R
T1 sequence (P32245 whole entry): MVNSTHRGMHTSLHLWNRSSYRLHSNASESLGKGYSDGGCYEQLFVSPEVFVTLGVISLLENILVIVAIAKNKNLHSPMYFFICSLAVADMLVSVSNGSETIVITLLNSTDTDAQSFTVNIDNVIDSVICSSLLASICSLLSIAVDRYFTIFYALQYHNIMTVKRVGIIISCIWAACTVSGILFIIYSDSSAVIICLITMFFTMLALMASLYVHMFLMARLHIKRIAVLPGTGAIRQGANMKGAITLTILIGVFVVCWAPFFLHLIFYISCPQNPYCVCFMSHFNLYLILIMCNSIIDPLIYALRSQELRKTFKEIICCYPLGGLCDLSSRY

[2] = biological target: T1, human melanocortin-4 receptor; test: cell-based or functional assay
melanocortin-1 receptor = biological target: T2, melanocortin-1 receptor (mouse (B-16 melanoma cells); in some …, UniProt Q01727 1-315); test: [I125]-NDP-α-MSH competition, MC1-R membranes
T2 construct: whole, on cells; membrane homogenates; also called MC1-R; mouse B16 MC1-R
T2 sequence (Q01727 whole entry): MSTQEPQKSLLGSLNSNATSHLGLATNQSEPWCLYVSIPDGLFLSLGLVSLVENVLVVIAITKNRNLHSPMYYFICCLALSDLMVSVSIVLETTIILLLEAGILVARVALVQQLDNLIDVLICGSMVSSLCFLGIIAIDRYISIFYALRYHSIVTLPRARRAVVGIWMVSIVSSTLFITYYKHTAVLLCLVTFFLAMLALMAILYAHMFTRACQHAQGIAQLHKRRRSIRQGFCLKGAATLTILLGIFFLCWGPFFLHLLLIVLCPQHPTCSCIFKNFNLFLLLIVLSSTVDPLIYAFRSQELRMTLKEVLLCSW
Description: A competitive inhibition binding assay was performed for exemplified peptides according to the invention using membrane homogenates prepared from HEK-293 cells that express recombinant hMC4-R, hMC3-R, or hMC5-R, and from B-16 mouse melanoma cells (containing endogenous MC1-R). In some instances, HEK-293 cells that express recombinant hMC1-R were employed. Assays were performed in 96 well GF/B Millipore multiscreen filtration plates (MAFB NOB10) pre-coated with 0.5% bovine serum albumin (Fraction V). […] After incubation for 60 minutes at 37° C., the assay mixture was filtered and the membranes washed three times with ice-cold buffer. Filters were dried and counted in a gamma counter for bound radioactivity. […] Each assay was conducted in triplicate and the actual mean values are described, with results less than 0% reported as 0%. Ki values for test peptides of the present invention were determined using Graph-Pad Prism® curve-fitting software.

[3] = biological target: T1, human melanocortin-4 receptor; test: cell-based or functional assay; remark: listed apart in the source
[4] = biological target: T1, human melanocortin-4 receptor; test: [I125]-NDP-α-MSH competition, hMC4-R HEK-293 membranes

Binder | Ki [1] [nM] | EC50, cAMP, 0.1 ng/mL Doxycycline [2] [nM] | Ki (melanocortin-1 receptor) [nM] | EC50, cAMP, 0.1 ng/mL Doxycycline [3] [nM] | EC50, cAMP, 10 ng/mL Doxycycline [3] [nM] | Intrinsic Activity, cAMP, 0.1 ng/mL Doxycycline [3] [%] | Intrinsic Activity, cAMP, 10 ng/mL Doxycycline [3] [%] | Ki [4] [nM]
B1 | 0.65 | 0.33 | – | – | – | – | – | –
B2 | – | – | 3970 | 9 | 0.483 | 36 | 96 | 40
B3 | – | – | 93 | 1 | 0.185 | 73 | 117 | 8
B4 | – | – | 1750 | 6 | 0.65 | 13 | 86 | 7
